# Assay results taken from patent US20240018252A1.
# Where “and” joins values, the source holds several entries; their conditions need not be identical. Identical values can stand only once.
# B1: A02_Rd4_6nM_C01 N297Q/K222R Aclys vc0101 (antibody, V domains shown)
# VH: EVQLLESGGGLVQPGGSLRLSCAASGFTFSSYAMNWVRQAPGKGLEWVSAITASGGSTYYADSVKGRFTISRDNSKNTLYLQMNSLRAEDTAVYYCARYWPMSLWGQGTLVTVSS
# VL: EIVLTQSPGTLSLSPGERATLSCRASQSVSAYYLAWYQQKPGQAPRLLMYDASIRATGIPDRFSGSGSGTDFTLTISRLEPEDFAVYYCQQYERWPLTFGQGTKVEIK
# modifications: N297Q and K222R (EU) in the human IgG1 constant region; AcLys-Val-Cit-PABC-Aur0101 joined by transglutaminase to the glutamine at 297
# B2: Combo_Rd4_0.6nM_C29 H7c/N297A/K222R AmPEG6 Aur0131 (antibody, V domains shown)
# VH: EVQLLESGGGLVQPGGSLRLSCAASGFTFSSYPMSWVRQAPGKGLEWVSAIGGSGGSLPYADSVKGRFTISRDNSKNTLYLQMNSLRAEDTAVYYCARYWPMDIWGQGTLVTVSS
# VL: EIVLTQSPGTLSLSPGERATLSCRASQSVSSSYLAWYQQKPGQAPRLLMYDASIRATGIPDRFSGSGSGTDFTLTISRLEPEDFAVYYCQQYQSWPLTFGQGTKVEIK
# modifications: H7c tag LLQG (SEQ ID NO: 454), N297A and K222R (EU) in the human IgG1 heavy chain constant region; amino-PEG6-C2-Aur0131 joined by transglutaminase
# B3: A02_Rd4_6nM_C01/h2B4 anti-BCMA/CD3 bispecific (bispecific antibody, V domains shown)
# VH 1: EVQLLESGGGLVQPGGSLRLSCAASGFTFSSYAMNWVRQAPGKGLEWVSAITASGGSTYYADSVKGRFTISRDNSKNTLYLQMNSLRAEDTAVYYCARYWPMSLWGQGTLVTVSS
# VL 1: EIVLTQSPGTLSLSPGERATLSCRASQSVSAYYLAWYQQKPGQAPRLLMYDASIRATGIPDRFSGSGSGTDFTLTISRLEPEDFAVYYCQQYERWPLTFGQGTKVEIK
# VH 2: EVQLVESGGGLVQPGGSLRLSCAASGFTFSDYYMTWVRQAPGKGLEWVAFIRNRARGYTSDHNASVKGRFTISRDNAKNSLYLQMNSLRAEDTAVYYCARDRPSYYVLDYWGQGTTVTVSS
# VL 2: DIVMTQSPDSLAVSLGERATINCTSSQSLFNVRSRKNYLAWYQQKPGQPPKLLISWASTRESGVPDRFSGSGSGTDFTLTISSLQAEDVAVYYCKQSYDLFTFGSGTKLEIK
# B4: COMBO_Rd4_0.6nM_C22/h2B4 anti-BCMA/CD3 bispecific (bispecific antibody, V domains shown)
# VH 1: EVQLLESGGGLVQPGGSLRLSCAASGFTFSSYAMNWVRQAPGKGLEWVSAISDSGGSRWYADSVKGRFTISRDNSKNTLYLQMNSLRAEDTAVYYCTRYWPMDIWGQGTLVTVSS
# VL 1: EIVLTQSPGTLSLSPGERATLSCRASVRVSSTYLAWYQQKPGQAPRLLMYDASIRATGIPDRFSGSGSGTDFTLTISRLEPEDFAVYYCQQYMKWPLTFGQGTKVEIK
# VH 2: EVQLVESGGGLVQPGGSLRLSCAASGFTFSDYYMTWVRQAPGKGLEWVAFIRNRARGYTSDHNASVKGRFTISRDNAKNSLYLQMNSLRAEDTAVYYCARDRPSYYVLDYWGQGTTVTVSS
# VL 2: DIVMTQSPDSLAVSLGERATINCTSSQSLFNVRSRKNYLAWYQQKPGQPPKLLISWASTRESGVPDRFSGSGSGTDFTLTISSLQAEDVAVYYCKQSYDLFTFGSGTKLEIK
# B5: A02_Rd4_0.6nM_C06 (antibody, V domains shown)
# VH: EVQLLESGGGLVQPGGSLRLSCAASGFTFSSYAMNWVRQAPGKGLEWVSAISDSGGSAWYADSVKGRFTISRDNSKNTLYLQMNSLRAEDTAVYYCARYWPMSLWGQGTLVTVSS
# VL: EIVLTQSPGTLSLSPGERATLSCRASQSVSVLYLAWYQQKPGQAPRLLMYDASIRATGIPDRFSGSGSGTDFTLTISRLEPEDFAVYYCQQYQRWPLTFGQGTKVEIK
# B6: Combo_Rd4_0.6nM_C29 H7c/N297A/K222R AmPEG6 Aur3377 (antibody, V domains shown)
# VH: EVQLLESGGGLVQPGGSLRLSCAASGFTFSSYPMSWVRQAPGKGLEWVSAIGGSGGSLPYADSVKGRFTISRDNSKNTLYLQMNSLRAEDTAVYYCARYWPMDIWGQGTLVTVSS
# VL: EIVLTQSPGTLSLSPGERATLSCRASQSVSSSYLAWYQQKPGQAPRLLMYDASIRATGIPDRFSGSGSGTDFTLTISRLEPEDFAVYYCQQYQSWPLTFGQGTKVEIK
# modifications: H7c tag LLQG (SEQ ID NO: 454), N297A and K222R (EU) in the human IgG1 heavy chain constant region; amino-PEG6-C2-Aur3377 joined by transglutaminase
# B7: A02_Rd4_0.6nM_C18 (antibody, V domains shown)
# VH: EVQLLESGGGLVQPGGSLRLSCAASGFTFSSYAMNWVRQAPGKGLEWVSAVLDSGGSTYYADSVKGRFTISRDNSKNTLYLQMNSLRAEDTAVYYCARYWPMSLWGQGTLVTVSS
# VL: EIVLTQSPGTLSLSPGERATLSCRASQSVSELYLAWYQQKPGQAPRLLMYDASIRATGIPDRFSGSGSGTDFTLTISRLEPEDFAVYYCQQYFGWPLTFGQGTKVEIK
# B8: A02_Rd4_6nM_C16 N297Q/K222R Aclys vc0101 (antibody, V domains shown)
# VH: EVQLLESGGGLVQPGGSLRLSCAASGFTFSSYAMNWVRQAPGKGLEWVSAISDFGGSTYYADSVKGRFTISRDNSKNTLYLQMNSLRAEDTAVYYCARYWPMDIWGQGTLVTVSS
# VL: EIVLTQSPGTLSLSPGERATLSCRASQSVSDLYLAWYQQKPGQAPRLLMYDASIRATGIPDRFSGSGSGTDFTLTISRLEPEDFAVYYCQQYQTWPLTFGQGTKVEIK
# modifications: N297Q and K222R (EU) in the human IgG1 constant region; AcLys-Val-Cit-PABC-Aur0101 joined by transglutaminase to the glutamine at 297
# B9: Combo_Rd4_0.6nM_C29 N297Q/K222R Aclys vc0101 (antibody, V domains shown)
# VH: EVQLLESGGGLVQPGGSLRLSCAASGFTFSSYPMSWVRQAPGKGLEWVSAIGGSGGSLPYADSVKGRFTISRDNSKNTLYLQMNSLRAEDTAVYYCARYWPMDIWGQGTLVTVSS
# VL: EIVLTQSPGTLSLSPGERATLSCRASQSVSSSYLAWYQQKPGQAPRLLMYDASIRATGIPDRFSGSGSGTDFTLTISRLEPEDFAVYYCQQYQSWPLTFGQGTKVEIK
# modifications: N297Q and K222R (EU) in the human IgG1 constant region; AcLys-Val-Cit-PABC-Aur0101 joined by transglutaminase to the glutamine at 297
# B10: Combo_Rd4_0.6nM_C29 LCQ05/N297Q/K222R Aclys vc0101 (antibody, human IgG1, part only)
# heavy: EVQLLESGGGLVQPGGSLRLSCAASGFTFSSYPMSWVRQAPGKGLEWVSAIGGSGGSLPYADSVKGRFTISRDNSKNTLYLQMNSLRAEDTAVYYCARYWPMDIWGQGTLVTVSS
# light: EIVLTQSPGTLSLSPGERATLSCRASQSVSSSYLAWYQQKPGQAPRLLMYDASIRATGIPDRFSGSGSGTDFTLTISRLEPEDFAVYYCQQYQSWPLTFGQGTKVEIK
# chain: GGLLQGPP
# modifications: LCQ05 tag; Aclys vc0101 drug conjugate
# B11: Combo_Rd4_0.6nM_C29/h2B4 anti-BCMA/CD3 bispecific (bispecific antibody, V domains shown)
# VH 1: EVQLLESGGGLVQPGGSLRLSCAASGFTFSSYPMSWVRQAPGKGLEWVSAIGGSGGSLPYADSVKGRFTISRDNSKNTLYLQMNSLRAEDTAVYYCARYWPMDIWGQGTLVTVSS
# VL 1: EIVLTQSPGTLSLSPGERATLSCRASQSVSSSYLAWYQQKPGQAPRLLMYDASIRATGIPDRFSGSGSGTDFTLTISRLEPEDFAVYYCQQYQSWPLTFGQGTKVEIK
# VH 2: EVQLVESGGGLVQPGGSLRLSCAASGFTFSDYYMTWVRQAPGKGLEWVAFIRNRARGYTSDHNASVKGRFTISRDNAKNSLYLQMNSLRAEDTAVYYCARDRPSYYVLDYWGQGTTVTVSS
# VL 2: DIVMTQSPDSLAVSLGERATINCTSSQSLFNVRSRKNYLAWYQQKPGQPPKLLISWASTRESGVPDRFSGSGSGTDFTLTISSLQAEDVAVYYCKQSYDLFTFGSGTKLEIK
# B12: A02_Rd4_6nM_C08 (antibody, V domains shown)
# VH: EVQLLESGGGLVQPGGSLRLSCAASGFTFSSYAMNWVRQAPGKGLEWVSAILDSGGSTYYADSVKGRFTISRDNSKNTLYLQMNSLRAEDTAVYYCARYWPMSPWGQGTLVTVSS
# VL: EIVLTQSPGTLSLSPGERATLSCRASQSVSFLYLAWYQQKPGQAPRLLMYDASIRATGIPDRFSGSGSGTDFTLTISRLEPEDFAVYYCQQYGSWPLTFGQGTKVEIK
# B13: Combo_Rd4_0.6nM_C29 LCQ05/K222R Aclys vc0101 (antibody, human IgG1, part only)
# heavy: EVQLLESGGGLVQPGGSLRLSCAASGFTFSSYPMSWVRQAPGKGLEWVSAIGGSGGSLPYADSVKGRFTISRDNSKNTLYLQMNSLRAEDTAVYYCARYWPMDIWGQGTLVTVSS
# light: EIVLTQSPGTLSLSPGERATLSCRASQSVSSSYLAWYQQKPGQAPRLLMYDASIRATGIPDRFSGSGSGTDFTLTISRLEPEDFAVYYCQQYQSWPLTFGQGTKVEIK
# chain: GGLLQGPP
# modifications: LCQ05 tag; Aclys vc0101 drug conjugate
# B14: A02_Rd4_6nM_C19 (antibody, V domains shown)
# VH: EVQLLESGGGLVQPGGSLRLSCAASGFTFSSYAMNWVRQAPGKGLEWVSAISDSGGSRWYADSVKGRFTISRDNSKNTLYLQMNSLRAEDTAVYYCARYWPMSDWGQGTLVTVSS
# VL: EIVLTQSPGTLSLSPGERATLSCRASQSVSVLYLAWYQQKPGQAPRLLMYDASIRATGIPDRFSGSGSGTDFTLTISRLEPEDFAVYYCQQYLAWPLTFGQGTKVEIK
# B15: A02_Rd4_6nM_C04 (antibody, V domains shown)
# VH: EVQLLESGGGLVQPGGSLRLSCAASGFTFSSYAMNWVRQAPGKGLEWVSAIMSSGGPLYYADSVKGRFTISRDNSKNTLYLQMNSLRAEDTAVYYCARYWPMALWGQGTLVTVSS
# VL: EIVLTQSPGTLSLSPGERATLSCRASQSVSALYLAWYQQKPGQAPRLLMYDASIRATGIPDRFSGSGSGTDFTLTISRLEPEDFAVYYCQQYQVWPLTFGQGTKVEIK
# Tests used:
# [1] = biological target: human BCMA on BCMA-expressing tumor cells (human) (UniProt Q02223); test: cell-based or functional assay
# [2] = biological target: human BCMA (B-Cell Maturation Antigen) on myeloma cells (human) (UniProt Q02223); test: cell-based or functional assay
# [3] = biological target: cynomolgus BCMA (cynomolgus (given as cyBCMA, Cyno)); test: SPR, IgG immobilized, cyno BCMA analyte, 37 C
# Chain of cynomolgus BCMA (cynomolgus (given as cyBCMA, Cyno)) (chain, as listed by the source): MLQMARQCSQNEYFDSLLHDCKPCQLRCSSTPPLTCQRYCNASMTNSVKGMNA
# Chain of human BCMA on BCMA-expressing tumor cells (human) (Q02223 whole entry): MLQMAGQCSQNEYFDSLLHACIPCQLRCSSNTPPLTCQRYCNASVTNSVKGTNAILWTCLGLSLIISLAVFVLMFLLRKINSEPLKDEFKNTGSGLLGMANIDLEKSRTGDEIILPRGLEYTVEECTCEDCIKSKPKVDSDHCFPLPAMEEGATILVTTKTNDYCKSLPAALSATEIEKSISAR
# Chain of human BCMA (B-Cell Maturation Antigen) on myeloma cells (human) (Q02223 whole entry): as above
Binder,"EC50, cell viability (CellTiter-Glo, 96 h), KMS12BM LUCGFP (+) [1]","EC50, cell viability (CellTiter-Glo, 96 h), L363 LUCGFP (+) [1]","EC50, cell viability (CellTiter-Glo, 96 h), MM1.S LUCGFP (BCMA++) [1]",Kd [3],koff [3],kon [3],also measured
B1,18.7 nM and 2.8 µg/mL,2.53 nM and 0.38 µg/mL,0.26 nM and 0.04 µg/mL,,,,
B2,0.85 nM and 0.13 µg/mL,0.81 nM and 0.12 µg/mL,0.23 nM and 0.03 µg/mL,,,,
B3,,,,,,,"EC50, T-cell mediated cytotoxicity (LDH release, 20 h) on KMS12BM (BCMA+) cells [2]: 0.057 nM; EC50, T-cell mediated cytotoxicity (LDH release, 20 h) on MOLP8 (MOLP8+) cells [2]: 0.06 nM"
B4,,,,,,,"EC50, T-cell mediated cytotoxicity (LDH release, 20 h) on KMS12BM (BCMA+) cells [2]: 0.049 nM; EC50, T-cell mediated cytotoxicity (LDH release, 20 h) on KMS12PE (BCMA+++) cells [2]: 0.115 nM; EC50, T-cell mediated cytotoxicity (LDH release, 20 h) on MOLP8 (MOLP8+) cells [2]: 0.065 nM"
B5,,,,0.058 nM,0.000105 s⁻¹,1.81e+06 M⁻¹ s⁻¹,
B6,5.01 nM and 0.75 µg/mL,1.36 nM and 0.2 µg/mL,0.3 nM and 0.05 µg/mL,,,,
B7,,,,0.197 nM,0.000639 s⁻¹,3.24e+06 M⁻¹ s⁻¹,
B8,38.7 nM and 5.81 µg/mL,9.68 nM and 1.45 µg/mL,0.8 nM and 0.12 µg/mL,,,,
B9,0.99 nM and 0.15 µg/mL,0.66 nM and 0.1 µg/mL,0.11 nM and 0.02 µg/mL,,,,
B10,1.19 nM and 0.18 µg/mL,1.05 nM and 0.16 µg/mL,0.34 nM and 0.05 µg/mL,,,,
B11,,,,,,,"EC50 (nM), killing of primary myeloma cells, patient MM00146, E:T 1:1 [2]: 0.035 nM; EC50 (nM), killing of primary myeloma cells, patient MM00147, E:T 2:1 [2]: 0.031 nM; EC50 (nM), killing of primary myeloma cells, patient MM00151, E:T 3:1 [2]: 0.02 nM; EC50 (nM), killing of primary myeloma cells, patient MM00152, E:T 1:2 [2]: 0.289 nM; EC50, T-cell mediated cytotoxicity (LDH release, 20 h) on KMS12BM (BCMA+) cells [2]: 0.049 nM; EC50, T-cell mediated cytotoxicity (LDH release, 20 h) on KMS12PE (BCMA+++) cells [2]: 0.175 nM; EC50, T-cell mediated cytotoxicity (LDH release, 20 h) on MOLP8 (MOLP8+) cells [2]: 0.201 nM"
B12,,,,5.07 nM,0.0113 s⁻¹,2.23e+06 M⁻¹ s⁻¹,
B13,10.9 nM and 1.64 µg/mL,1.67 nM and 0.25 µg/mL,0.13 nM and 0.02 µg/mL,,,,
B14,,,,0.26 nM,0.000661 s⁻¹,2.54e+06 M⁻¹ s⁻¹,
B15,,,,0.381 nM,0.000831 s⁻¹,2.18e+06 M⁻¹ s⁻¹,
